The source of these data is article PMC6300606.

The target in experiment [1] is TssG (EAEC, residues 64–366) (enteroaggregative Escherichia coli (EAEC)). In words: cryo-EM structure; TssKSN–TssF–TssG complex co-expressed in E. coli and purified (Ni-NTA, Superose 6); 0.12 mg/ml in 20 mM Tris-HCl pH 7.8, 150 mM NaCl; single-particle cryoEM, 3.7 Å overall.
Experiment [2] deals with TssKSN (shoulder and neck domains of EAEC TssK, residues 1–315) (enteroaggregative Escherichia coli (EAEC)). The description is as above.

For “TssF (EAEC, full length) (natural protein)”, in experiment [1], the stoichiometry N (TssF per TssG) is 2.

Regarding “TssKSN (shoulder and neck domains of EAEC TssK, residues 1–315) (domain or fragment)”, the stoichiometry N (as a rule, the number of molecules, sites or subunits per partner or assembly) in experiment [2] is 3.
